Laboratory results reported in publication PMC9482650, “Quantitative fragmentomics allow affinity mapping of interactomes” (Nature Communications, 2022).

How the values were obtained:
Assay in all cases: holdup assay
Design in all cases: key: below the threshold = too weak to quantify, mostly under pKd 3.1 to 4
Conditions in all cases: plain residues with an end cap or a label only (N-terminal biotin on a linker: ttds)
[1] = biological target: GRIP2_3, Q9C0E4
[2] = biological target: T1, LNX2_2, Q8N448
T1 sequence (Q8N448 334-432, limits assumed, looked up): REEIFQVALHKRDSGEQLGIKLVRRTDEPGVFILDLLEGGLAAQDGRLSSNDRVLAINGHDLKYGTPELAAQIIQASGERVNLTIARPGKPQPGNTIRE

[3] = biological target: MAGI1_2, Q96QZ7
[4] = biological target: T2, APBA2_1, Q99767
T2 sequence (Q99767 563-664, limits assumed, looked up): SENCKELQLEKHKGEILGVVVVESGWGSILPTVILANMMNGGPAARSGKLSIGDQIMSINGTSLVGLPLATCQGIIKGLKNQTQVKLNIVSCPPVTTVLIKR

[5] = biological target: T3, GRIP1_2, Q9Y3R0
T3 sequence (Q9Y3R0 145-248, limits assumed, looked up): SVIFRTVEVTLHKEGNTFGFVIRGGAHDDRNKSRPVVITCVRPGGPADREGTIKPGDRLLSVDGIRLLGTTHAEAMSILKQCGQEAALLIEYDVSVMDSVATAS

[6] = biological target: T4, ARHGEF11, O15085
T4 sequence (O15085 42-136, limits assumed, looked up): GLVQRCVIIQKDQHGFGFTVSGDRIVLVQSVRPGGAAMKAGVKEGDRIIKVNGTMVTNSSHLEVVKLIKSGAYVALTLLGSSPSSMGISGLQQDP

[7] = biological target: PTPN3, P26045
[8] = biological target: T5, HTRA4, P83105
T5 sequence (P83105 378-476, limits assumed, looked up): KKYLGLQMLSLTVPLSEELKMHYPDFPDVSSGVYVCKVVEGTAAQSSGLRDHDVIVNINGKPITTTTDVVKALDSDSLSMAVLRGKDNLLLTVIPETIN

[9] = biological target: T6, GRIP1_5, Q9Y3R0
T6 sequence (Q9Y3R0 568-668, limits assumed, looked up): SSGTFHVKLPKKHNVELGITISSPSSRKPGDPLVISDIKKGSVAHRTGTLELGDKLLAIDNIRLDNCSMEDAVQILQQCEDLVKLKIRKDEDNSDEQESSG

[10] = biological target: T7, MPDZ_10, O75970
T7 sequence (O75970 1624-1722, limits assumed, looked up): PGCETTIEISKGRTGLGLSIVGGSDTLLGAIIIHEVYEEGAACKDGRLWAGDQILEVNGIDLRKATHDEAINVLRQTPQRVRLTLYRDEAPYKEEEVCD

[11] = biological target: Inadl_8, Q8NI35
[12] = biological target: GRID2IP_1, A4D2P6
[13] = biological target: CASK, O14936
[14] = biological target: T8, CARD11, Q9BXL7
T8 sequence (Q9BXL7 662-765, limits assumed, looked up): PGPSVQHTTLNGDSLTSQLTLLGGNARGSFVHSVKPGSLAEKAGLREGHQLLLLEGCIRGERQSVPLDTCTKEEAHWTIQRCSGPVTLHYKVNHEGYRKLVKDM

[15] = biological target: Inadl_5, Q8NI35
[16] = biological target: MAGI2_4, Q86UL8
[17] = biological target: T9, PCLO, Q9Y6V0
T9 sequence (Q9Y6V0 4491-4600, limits assumed, looked up): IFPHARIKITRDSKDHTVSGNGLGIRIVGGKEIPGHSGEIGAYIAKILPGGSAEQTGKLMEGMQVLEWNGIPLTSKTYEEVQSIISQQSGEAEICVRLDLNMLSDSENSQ

[18] = biological target: GRID2IP_2, A4D2P6
[19] = biological target: GRASP, Q7Z6J2
[20] = biological target: T10, LRRC7, Q96NW7
T10 sequence (Q96NW7 1440-1537, limits assumed, looked up): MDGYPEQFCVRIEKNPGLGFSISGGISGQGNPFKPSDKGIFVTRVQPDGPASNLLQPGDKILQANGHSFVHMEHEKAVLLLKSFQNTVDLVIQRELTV

[21] = biological target: LDB3, O75112
[22] = biological target: ARHGEF12, Q9NZN5-2
[23] = biological target: T11, NHERF3_1, Q5T2W1
T11 sequence (Q5T2W1 4-100, limits assumed, looked up): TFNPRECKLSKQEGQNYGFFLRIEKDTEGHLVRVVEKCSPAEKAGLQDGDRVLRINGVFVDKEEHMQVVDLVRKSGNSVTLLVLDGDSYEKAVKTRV

[24] = biological target: T12, SHANK1, Q9Y566
T12 sequence (Q9Y566 658-767, limits assumed, looked up): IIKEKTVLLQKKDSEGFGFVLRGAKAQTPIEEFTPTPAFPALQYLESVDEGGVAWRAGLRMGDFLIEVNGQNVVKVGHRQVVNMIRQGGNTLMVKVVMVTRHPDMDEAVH

[25] = biological target: NHERF4_2, Q86UT5
NHERF4_2, Q86UT5, sequence (Q86UT5 220-308): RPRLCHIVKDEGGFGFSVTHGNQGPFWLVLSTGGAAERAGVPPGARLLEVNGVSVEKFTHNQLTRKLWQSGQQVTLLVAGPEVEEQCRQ

MAGI2_4, Q86UL8, sequence (Q86UL8 772-865): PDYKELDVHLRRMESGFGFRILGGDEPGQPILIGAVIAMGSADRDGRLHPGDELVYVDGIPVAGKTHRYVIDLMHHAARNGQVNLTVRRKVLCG
CASK, O14936, sequence (O14936 487-570): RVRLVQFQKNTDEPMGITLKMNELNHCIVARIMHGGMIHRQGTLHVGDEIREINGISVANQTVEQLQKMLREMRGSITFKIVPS
PTPN3, P26045, sequence (P26045 505-587): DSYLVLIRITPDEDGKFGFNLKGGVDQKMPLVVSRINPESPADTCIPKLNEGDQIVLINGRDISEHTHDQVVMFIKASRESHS
GRASP, Q7Z6J2, sequence (Q7Z6J2 96-193): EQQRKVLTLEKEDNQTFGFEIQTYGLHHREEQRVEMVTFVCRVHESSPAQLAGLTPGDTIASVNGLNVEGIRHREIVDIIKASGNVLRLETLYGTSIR
GRID2IP_2, A4D2P6, sequence (A4D2P6 272-370): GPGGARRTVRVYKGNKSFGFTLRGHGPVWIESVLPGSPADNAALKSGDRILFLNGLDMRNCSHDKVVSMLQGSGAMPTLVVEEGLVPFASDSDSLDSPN
GRIP2_3, Q9C0E4, sequence (Q9C0E4 238-339): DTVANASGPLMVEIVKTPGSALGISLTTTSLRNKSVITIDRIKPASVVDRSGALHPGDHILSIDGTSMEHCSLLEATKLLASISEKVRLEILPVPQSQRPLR
Inadl_8, Q8NI35, sequence (Q8NI35 1425-1530): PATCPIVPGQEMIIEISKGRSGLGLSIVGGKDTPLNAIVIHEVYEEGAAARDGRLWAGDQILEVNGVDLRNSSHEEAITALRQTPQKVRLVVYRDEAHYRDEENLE
Inadl_5, Q8NI35, sequence (Q8NI35 673-780): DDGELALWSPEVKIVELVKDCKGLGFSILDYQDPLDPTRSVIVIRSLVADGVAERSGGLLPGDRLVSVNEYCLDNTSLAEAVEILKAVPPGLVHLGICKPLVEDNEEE
ARHGEF12, Q9NZN5-2, sequence (Q9NZN5 other isoform, or with tags, fused parts or gaps): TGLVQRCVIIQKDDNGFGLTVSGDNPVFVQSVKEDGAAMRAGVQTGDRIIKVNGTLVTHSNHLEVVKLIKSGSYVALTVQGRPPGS
GRID2IP_1, A4D2P6, sequence (A4D2P6 1-87): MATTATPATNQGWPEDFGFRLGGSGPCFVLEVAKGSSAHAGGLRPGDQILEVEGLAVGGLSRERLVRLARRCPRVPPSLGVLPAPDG
LDB3, O75112, sequence (O75112 1-94): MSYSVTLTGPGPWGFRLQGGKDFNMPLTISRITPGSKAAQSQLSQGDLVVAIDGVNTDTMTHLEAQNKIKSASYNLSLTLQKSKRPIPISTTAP
MAGI1_2, Q96QZ7, sequence (Q96QZ7 456-580): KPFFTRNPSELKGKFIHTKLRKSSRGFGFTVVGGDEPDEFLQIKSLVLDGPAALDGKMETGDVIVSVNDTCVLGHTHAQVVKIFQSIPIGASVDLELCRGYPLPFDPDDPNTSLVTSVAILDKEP

Binder	pKd [1]	pKd [2]	pKd [3]	pKd [4]	pKd [5]	pKd [6]	pKd [7]	pKd [8]	pKd [9]	pKd [10]	pKd [11]	pKd [12]	pKd [13]	pKd [14]	pKd [15]	pKd [16]	pKd [17]	pKd [18]	pKd [19]	pKd [20]	other results
RSLEEEESQL [GRASP, Q7Z6J2]	below the threshold	below the threshold	below the threshold	below the threshold	below the threshold	3.78	4.83	below the threshold	3.87	below the threshold	3.71	below the threshold	below the threshold	3.81	below the threshold	3.7	3.73	4.33	3.99	below the threshold	pKd [21]: 3.68; pKd [22]: 3.56; pKd [23]: 5.27; pKd [24]: 5.1; pKd [25]: below the threshold
SVWLRKETRV [CYSLTR2, Q9NS75]	below the threshold	3.77	5.63	below the threshold	below the threshold	4.46	4.68	3.38	below the threshold	3.92	4.55	below the threshold	below the threshold	below the threshold	3.62	4.06	below the threshold	3.45	below the threshold	3.65	pKd [21]: below the threshold; pKd [22]: 4.23; pKd [23]: 4.8; pKd [24]: 3.51; pKd [25]: below the threshold
SRPQRTQTQV [HPV67-E6, A4U7F2]	below the threshold	3.6	5.22	below the threshold	below the threshold	4.05	3.95	below the threshold	below the threshold	3.4	below the threshold	below the threshold	below the threshold	below the threshold	below the threshold	4.14	below the threshold	below the threshold	below the threshold	below the threshold	pKd [21]: below the threshold; pKd [22]: 4; pKd [23]: 3.98; pKd [24]: below the threshold; pKd [25]: below the threshold
ERKLSSESQV [LRP4, O75096]	below the threshold	below the threshold	4.01	below the threshold	3.7	below the threshold	4.61	below the threshold	below the threshold	below the threshold	below the threshold	below the threshold	below the threshold	below the threshold	below the threshold	3.83	below the threshold	below the threshold	below the threshold	below the threshold	pKd [21]: below the threshold; pKd [22]: 3.7; pKd [23]: below the threshold; pKd [24]: below the threshold; pKd [25]: below the threshold
